Data taken from PMC7382241 (2020).
Where “and” joins values, the source holds several entries; their conditions need not be identical. Identical values can stand only once.

Target: N-terminal AVI-tagged and biotinylated FKBP12 (human, UniProt P62942 1-108, biotin (biotinylated AVI tag))
Assay: SPR

Chain of N-terminal AVI-tagged and biotinylated FKBP12 (P62942 whole entry): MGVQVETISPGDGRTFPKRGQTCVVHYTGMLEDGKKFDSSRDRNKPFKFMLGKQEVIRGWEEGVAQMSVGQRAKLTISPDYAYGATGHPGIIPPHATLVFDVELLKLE

| Binder | Kd |
| --- | --- |
| recombinant CEP250_(29.2) (residues 1,981 to 2,281) (domain or fragment) EQHLLEQAELSRSLEASTATLQASLDACQAHSRQLEEALRIQEGEIQDQDLRYQEDVQQLQQALAQRDEELRHQQEREQLLEKSLAQRVQENMIQEKQNLGQEREEEEIRGLHQSVRELQLTLAQKEQEILELRETQQRNNLEALPHSHKTSPMEEQSLKLDSLEPRLQRELERLQAALRQTEAREIEWREKAQDLALSLAQTKASVSSLQEVAMFLQASVLERDSEQQRLQDELELTRRALEKERLHSPGATSTAELGSRGEQGVQLGEVSGVEAEPSPDGMEKQSWRQRLEHLQQAVAR | 37.6 nM and 23.4 nM and 57.7 nM |
| CEP250_(11.4) (residues 2,134 to 2,231) (domain or fragment) MEEQSLKLDSLEPRLQRELERLQAALRQTEAREIEWREKAQDLALSLAQTKASVSSLQEVAMFLQASVLERDSEQQRLQDELELTRRALEKERLHSPG | 32.5 nM and 32.7 nM and 41.2 nM |
